Laboratory results as given in US20110300138A1 (published 2011).

Columns and labels:
[1] = target: TSHR with Phe130 mutated to Ala, expressed in CHO cells (human) (UniProt P16473); assay: cell-based or functional assay
[2] = target: wild type TSHR expressed in CHO cells (human) (UniProt P16473); assay: cell-based or functional assay
[3] = target: TSHR (thyroid stimulating hormone receptor), full length human (human) (UniProt P16473); assay: negative control; competitor ^125I-K1-70 IgG, TSHR coated tubes; 0.01 µg/mL in assay buffer
[4] = target: human thyroid stimulating hormone receptor (TSHR), full length (human) (UniProt P16473); assay: 125I-K1-70 Fab (competitor) binding to TSHR coated tubes; negative control MAb 10 µg/mL in HBD serum
[5] = target: TSHR (full length) coated on tubes (human) (UniProt P16473); assay: inhibition of 125I-K1-18 Fab (competitor) binding to TSHR coated tubes; negative control 10 µg/mL in HBD serum
[6] = target: TSHR (full length) coated on tubes (human) (UniProt P16473); assay: inhibition of 125I-K1-18 Fab (competitor) binding to TSHR coated tubes; negative control 0.1 µg/mL in assay buffer
[7] = target: TSH receptor (TSHR), full length human, coated on tubes (human) (UniProt P16473); assay: inhibition of 125I-K1-18 IgG binding to TSHR coated tubes; competitor 125I-K1-18 IgG; negative control sample at 0.1 µg/mL in HBD serum

% inhibition of TSH stimulation; TSH (2) [1] | Cyclic AMP produced; TSH 3 ng/mL [1] | Cyclic AMP produced; TSH (2) [1] | Mutated/wild type (%) of cyclic AMP produced; TSH 3 ng/mL [1] | Mutated/wild type (%) of cyclic AMP produced; TSH (2) [1] | % inhibition of TSH stimulation; TSH (2) [2] | Cyclic AMP produced; TSH 3 ng/mL [2] | Cyclic AMP produced; TSH (2) [2] | Inhibition of binding (%) [3] | Inhibition of binding (%) [4] | Inhibition of binding (%) [5] | Inhibition of binding (%) [6] | Inhibition of binding (%) [7] | Substance
0% | 121 pmol/mL | 95.4 pmol/mL | 152% | 107% | 0% | 79.4 pmol/mL | 89.1 pmol/mL | – | – | – | – | – | TSH (ligand)
– | – | – | – | – | – | – | – | -3.6% | -5.7% | -0.1% | -3.6% | -7.8% | 5B3 IgG (antibody)
